Laboratory results reported in paper PMC3090699 (Amino acids, 2010).

Biological target: the molecule itself
Experiment: SEC

B1: methionine adenosyltransferase from Methanococcus jannaschii, wild type (enzyme, UniProt Q58605 1-406, looked up)
chain: MRNIIVKKLDVEPIEERPTEIVERKGLGHPDSICDGIAESVSRALCKMYMEKFGTILHHNTDQVELVGGHAYPKFGGGVMVSPIYILLSGRATMEILDKEKNEVIKLPVGTTAVKAAKEYLKKVLRNVDVDKDVIIDCRIGQGSMDLVDVFERQKNEVPLANDTSFGVGYAPLSTTERLVLETERFLNSDELKNEIPAVGEDIKVMGLREGKKITLTIAMAVVDRYVKNIEEYKEVIEKVRKKVEDLAKKIADGYEVEIHINTADDYERESVYLTVTGTSAEMGDDGSVGRGNRVNGLITPFRPMSMEAASGKNPVNHVGKIYNILANLIANDIAKLEGVKECYVRILSQIGKPINEPKALDIEIITEDSYDIKDIEPKAKEIANKWLDNIMEVQKMIVEGKVTTF
stoichiometry N: 2
